Assay results taken from US10864251B2, “Peptides of syndecan-1 for inhibiting angiogenesis” (Wisconsin Alumni Research Foundation, priority 2006, dated 2020).
Where no end group is shown, it is not given here.

Experiments:
B82L fibroblasts = type: cell-based, mouse; conditions: 6 h
Experimental: FIGS. 6A-6H—Inhibition of B82L fibroblast and HMEC-1 cell attachment and spreading on VN by synstatin82-130. B82L fibroblasts, which rely on the αvβ5 integrin for attachment to VN, and human dermal microvascular endothelial cells, which rely on both the αvβ3 and αvβ5 integrins for attachment to VN, were plated in the absence of peptide (FIGS. 6A, 6E) or in the presence of 0.1 (FIGS. 6B, 6F), 0.3 (FIGS. 6C, 6G) or 1 μM (FIGS. 6D, 6H) synstatin82-130 for 2 hr and processed as described in FIG. 2.
Cell adhesion and spreading assays were performed with modification to the previous procedures (Lebakken and Rapraeger, 1996. Briefly, human plasma vitronectin or fibronectin at 10-30 μg/ml were applied to nitrocellulose-coated ten well slides (Erie Scientific) and incubated for 1-2 h at 37° C. Slides were blocked with 1.0% heat-denatured bovine serum albumin for a minimum of 30 min at 37° C. Cells were detached from the substratum using 5 mM EDTA in Tris-buffered saline and resuspended in HEPES-buffered culture medium containing 0.1% heat-denatured BSA. Cells were plated at a density of 15,000 cells per well and allowed to attach and spread for 2 h prior to fixation in 4% paraformaldehyde in CMF-PBS. For fluorescence microscopy, fixed cells were permeabilized in 0.2% Triton X-100, labeled with rhodamine-conjugated phalloidin and analyzed using fluorescence microscopy. […]

[1] = tested on: human aortic endothelial cells (HAEC); experiment: Cell attachment and spreading on VN, HAECs; type: cell-based
Experimental: FIG. 2—Human aortic endothelial cells rely on αvβ3 and αvβ5 integrins for spreading on VN. Human aortic endothelial cells (HAECs) were suspended and replated on 10 μg/ml VN in the presence of integrin inhibitory antibodies mAb 13 (specific for β1-containing integrins; this will inhibit the αvβ1 integrin), LM609 (specific for the αvβ3 integrin) and P1F6 (specific for the αvβ5 integrin), or combinations of these mAbs. After 2 hr, the cells were fixed, stained with Alexa488-conjugated phalloidin to aid in visualization, and observed by fluorescence microscopy to document integrin-dependent spreading. Inhibition of spreading requires simultaneous inhibition of both αvβ3 and αvβ5 integrins.
FIG. 3—αvβ3 and αvβ5 integrin-mediated spreading of human aortic endothelial cells on VN is disrupted by recombinant Sdc1 ectodomain fusion protein. HAECs were plated on VN in the presence of no competitor, 1-10 μM GST-mS1ED (recombinant mouse Sdc1 ectodomain expressed as a fusion protein with GST) or GST alone.
FIG. 4—Inhibition of HAEC spreading on VN by silencing of Sdc-1. […]
FIGS. 10A-10D—Dependence of HMEC cell attachment and spreading on integrin activation by Sdc1 and its inhibition by SSTN. […] Sdc1 expression was quantified by flow cytometry using human Sdc1-specific mAb B-B4 or a control mouse IgG. […]

[2] = tested on: MDA-MB-231 human mammary carcinoma cells; conditions: MDA-MB-231 on vitronectin; shown previously (Beauvais et al., 2004); read-out: IC50, block of cell spreading on VN; cited from earlier work

Molecule	IC50 (B82L fibroblasts) [nM]	IC50 ([1]; read-out: IC50, cell spreading on vitronectin) [nM]	cell spreading on VN ([1]; soluble competitor 1-10 μM (FIG. 3))	IC50 [2] [nM]
SNTETAFTSVLPAGEKPEEGEPVLHVEAEPGFTARDKEKEVTTRPRETV [synstatin82-130]	~100			
S1ED: recombinant mouse Sdc1 ectodomain (amino acids 18-251), expressed in bacteria as GST fusion or 6×His-tagged protein (protein, left off: a dimerising Fc or GST, recombinant mouse Sdc1 ectodomain (amino acids 18-251), expressed in bacteria as GST fusion or 6×His-tagged protein) QPALPQIVAVNVPPEDQDGSGDDSDNFSGSGTGALPDTLSRQTPSTWKDVWLLTATPTAPEPTSSNTETAFTSVLPAGEKPEEGEPVLHVEAEPGFTARDKEKEVTTRPRETVQLPITQRASTVRVTTAQAAVTSHPHGGMQPGLHETSAPTAPGQPDHQPPRVEGGGTSVIKEVVEDGTANQLPAGEGSGEQDFTFETSGENTAVAAVEPGLRNQPPVDEGATGASQSLLDRK		~1000	blocked	3000 to 10000
